# Test results: the supplement of paper PMC9732359
# ± gives the uncertainty stated by the source.
# Experiment: protein stability index of a GFP-peptide fusion (yeast GPS) (PSI 1-4); higher = more stable; sorted into four equal gates, so the index is relative within each strain
# Method in brief: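 Yeast carrying a pooled library were grown to mid-log phase in leucine-free medium. Each library plasmid expresses Cherry and has a tiled 17-residue yeast protein peptide fused downstream of GFP. Cells were sorted into four equal gates by GFP/Cherry ratio, and plasmids from each gate were PCR-amplified, Illumina-sequenced and assigned to strains by barcode. Summing, across gates, the read frequency times the gate number gave each peptide's protein stability index.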
Sequence,protein stability index (doa10∆),protein stability index (pdr5∆),protein stability index (san1∆),protein stability index (ubr1∆)
MSQAVNAKKRVFKTHSY [RPS15],2.57 ± 0.055,1.72 ± 0.035,2.19 ± 0.11,2.63 ± 0.061
VPKEGLFYFDSSFRPCP [BRR2],3.17 ± 0.068,3.28 ± 0.058,3.38 ± 0.046,3.14 ± 0.039
NTLILRGPRNSREAVRH [RPL18A],2.53 ± 0.25,2.89 ± 0.18,–,–
KMVGLRGFNNQIMQLKK [SNF2],3.35 ± 0.063,3.21 ± 0.073,3.04 ± 0.068,3.35 ± 0.041
AGLDKGISINNMMEHWD [RPO31],3.04 ± 0.13,3.09 ± 0.091,3.02 ± 0.086,3.14 ± 0.05
CWLSNIDIQTQDLNQRF [RRI1],2.72 ± 0.11,3.23 ± 0.11,3.24 ± 0.072,3.17 ± 0.079
QDLPKINDKRANLMLVM [SRB4],1.91 ± 0.073,1.88 ± 0.068,1.83 ± 0.14,1.73 ± 0.063
GKLAKPRQLHNTHWGLV [RPB2],2.85 ± 0.082,2.84 ± 0.071,2.61 ± 0.068,2.94 ± 0.092
FQHADNSSMRYGYWFDC [AAR2],3.06 ± 0.11,2.77 ± 0.12,2.15 ± 0.089,3.14 ± 0.14
PPQAGDRSLADDYDYVM [RPB8],3.23 ± 0.11,2.99 ± 0.11,3.33 ± 0.084,3 ± 0.09
ESLREIPYGPDFDNIEF [SEC65],3.1 ± 0.072,3.12 ± 0.067,2.92 ± 0.087,3.04 ± 0.057
GIPPPYDKKKRVVVPQA [RPL16B],1.83 ± 0.046,2.2 ± 0.059,1.99 ± 0.12,2.13 ± 0.058
LLVPLALLTKRLYPHWD [CSN12],2.33 ± 0.066,2.01 ± 0.063,1.83 ± 0.092,1.5 ± 0.037
QHEQGTFEKHDRVEDIC [RRI2],2.89 ± 0.091,–,–,2.97 ± 0.13
EVRGQVPVIESAGFETD [SNU114],1.37 ± 0.052,1.59 ± 0.06,1.49 ± 0.15,1.86 ± 0.057
ERVTALKNCKISNINIP [SMC1],3.25 ± 0.1,3.25 ± 0.12,3.1 ± 0.066,3.41 ± 0.11
VRIHSIQVLTEASSLGY [IRR1],1.49 ± 0.22,1.64 ± 0.12,–,–
RSNGSVASLSKRNKLLT [YJL039C/NUP192],1.73 ± 0.1,1.55 ± 0.068,2.1 ± 0.12,1.54 ± 0.062
ISTRERDYLVDTLKLRE [RRP6],3.07 ± 0.076,2.72 ± 0.061,2.97 ± 0.065,3.17 ± 0.06
KPGSIDAISQVINIAKA [FAS1],2.14 ± 0.052,2.87 ± 0.061,2.61 ± 0.069,2.95 ± 0.033
NVPVHVSPAFRVQVGDI [RPS11A],2.69 ± 0.075,3.15 ± 0.08,2.68 ± 0.079,2.71 ± 0.06
THSKLFADKKRDCIDIS [PRP8],3.45 ± 0.095,3.2 ± 0.077,3.18 ± 0.061,3.38 ± 0.074
VKVSAAAGKANKQFAKF [RPS11A],2.64 ± 0.081,2.88 ± 0.074,2.85 ± 0.065,2.93 ± 0.044
YNALFQQNIKFRRDFLL [YJL039C/NUP192],2.38 ± 0.096,2.02 ± 0.063,2.4 ± 0.068,2.3 ± 0.055
TGITKKDEDEEADEDMK [PRE9],3.09 ± 0.057,3.3 ± 0.074,3.06 ± 0.064,3.07 ± 0.061
GEVMKELSEEKYIVKAS [RPT4],3.25 ± 0.061,3.38 ± 0.072,3.41 ± 0.043,3.3 ± 0.042
ARKSKEEREAAASKVKL [RPC53],3.16 ± 0.22,–,–,–

Sequence,protein stability index (doa10∆),protein stability index (pdr5∆),protein stability index (san1∆),protein stability index (ubr1∆)
SVHHARVLITQRHIAVG [RPS9A],–,1.31 ± 0.14,–,–
EDLFDDYPSTSLDIRHD [NUT1],1.81 ± 0.081,2.9 ± 0.077,3.09 ± 0.058,2.05 ± 0.056
KIKQYERLRFYKDTFTL [RRI1],2.78 ± 0.056,2.54 ± 0.055,2.4 ± 0.049,2.81 ± 0.039
LERLTLVFCKHITSVPI [GRR1],1.47 ± 0.057,1.42 ± 0.084,1.17 ± 0.14,1.44 ± 0.047
KYLYLRAVGGEVGASAA [RPL12A],1.66 ± 0.18,1.99 ± 0.13,1.64 ± 0.13,2.11 ± 0.1
MSAPEAQQQKRGGFGGR [RPS2],–,3.25 ± 0.13,3.28 ± 0.1,3.33 ± 0.17
LHKFLTKWGLINYQVDS [SWI3],2.46 ± 0.17,2.71 ± 0.12,2.03 ± 0.078,2.12 ± 0.072
FGGSQPNSGTATTGGFG [YGR119C/NUP57],2.98 ± 0.2,3.05 ± 0.12,3.15 ± 0.18,3.4 ± 0.2
LEEVSLKWIDTASKFGK [RPL3],1.75 ± 0.097,1.91 ± 0.092,1.8 ± 0.12,1.95 ± 0.089
FPTRLGQGYRKVGIWPY [YJL039C/NUP192],3.49 ± 0.17,3.25 ± 0.14,2.96 ± 0.12,–
MVEGDSYVETLDSMIEL [MED1],3.25 ± 0.084,3.24 ± 0.1,3.33 ± 0.051,3.19 ± 0.053
GKGDNDNGLGPLKYAPH [SWI3],2.69 ± 0.058,3.39 ± 0.12,2.85 ± 0.085,2.7 ± 0.052
IYAGFGRDTTDYLKNII [RPN2],–,2.75 ± 0.21,3.22 ± 0.16,–
SFILSSLEDPQVRKKQI [YDL116W/NUP84],1.94 ± 0.11,2.09 ± 0.079,2.44 ± 0.098,3 ± 0.1
VEAIRRSNQYQRGKMHG [NUT2],2.85 ± 0.085,2.64 ± 0.076,2.83 ± 0.11,2.6 ± 0.099
GGGWDNVDQTKTQCPNY [RPC11],3.47 ± 0.13,3.25 ± 0.17,3.07 ± 0.078,3.22 ± 0.09
FNELCDPESRTQSYNNQ [POP1],3.09 ± 0.14,3.02 ± 0.12,2.95 ± 0.11,2.96 ± 0.084
VTGFAEVGPWGSARTRW [FAS2],2.24 ± 0.079,3.03 ± 0.086,2.73 ± 0.093,2.06 ± 0.071
LGICTHLGCVPIGEAGD [RIP1],2.21 ± 0.08,2.33 ± 0.076,1.79 ± 0.1,1.9 ± 0.083
YLTGGQQPTASDNIASL [SMD1],3 ± 0.21,2.57 ± 0.18,3.04 ± 0.099,2.61 ± 0.18
LRKIDMLQKKLVEVEDE [SRB7],3.06 ± 0.13,3.45 ± 0.11,3.42 ± 0.18,3.36 ± 0.1
TTLTIMRILPRETDPLV [RPT4],2.63 ± 0.068,2.62 ± 0.057,2.73 ± 0.064,2.52 ± 0.039
STKFDYPPMPFDGFLFG [FAS1],2.56 ± 0.046,2.63 ± 0.051,2.68 ± 0.063,2.68 ± 0.037
ADLPGSYNLEYIESKFC [YMR129W/POM152],3.16 ± 0.13,3.38 ± 0.19,3.13 ± 0.14,3.24 ± 0.093
PVYTAQWSATWIAMRRE [PRP8],1.68 ± 0.079,1.96 ± 0.063,1.97 ± 0.089,1.9 ± 0.067
IRNVIMSASNANDFQLT [SRB8],2.06 ± 0.048,2.34 ± 0.058,2.24 ± 0.087,2.19 ± 0.073
